# Target: N-terminal domain (residues 1-79) of HCV glycoprotein E1 ectodomain, N43Q (Hepatitis C virus, strain H77)
# Test: SEC-MALS; analytical Superdex S200 10/30 with online static light scattering; protein not deglycosylated, ~4.2 mg/ml
substance,measurement,value
"N-terminal domain (residues 1-79) of HCV glycoprotein E1 ectodomain, N43Q (domain or fragment)",stoichiometry N,2

# From PMC4175578
